According to US6780603:

Target: α2β1 integrin receptor of human mesangial cells (human) (UniProt P05556)
Test: cell-based or functional assay

Substance “P1H5 anti-α2 integrin monoclonal antibody” has an inhibition of adhesion of human mesangial cells grown in 5 mM glucose to cIV (percent of binding in the presence of W6/32) of 60% and an inhibition of adhesion of human mesangial cells grown in 25 mM glucose to cIV (percent of binding in the presence of W6/32) of 75%.
